Measured values published in the Human Domainome abundance scans (Beltran et al. 2025).

B1: Segment polarity protein dishevelled homolog DVL-3, residues 2 to 81; numbered along this chain, Q92997 (parent)
chain: GETKIIYHLDGQETPYLVKLPLPAERVTLADFKGVLQRPSYKFFFKSMDDDFGVVKEEISDDNAKLPCFNGRVVSWLVSA

Variants of: B1
Test: abundance fitness (aPCA) (normalised: wild type 0, dead -1); higher = more abundant; growth selection in yeast, the domain comes from the species named
Settings: Homo sapiens

Abundance fitness of substitutions, site by site:
A64: Q -0.001, C -0.346, F -0.786, E -0.27, S -0.376, L -0.904, M -0.316, D -0.342, R -0.359, I -0.414, G -0.647, N -0.523, Y -0.894, W -0.672, P -0.663, V -0.506
V73: R -0.592, Q -0.477, H -0.573, D -0.501, W -0.589, I 0.147, M -0.767, E -0.786, G -0.681, C -0.347, N -0.569, L -0.56, K -1.01, S -0.618, A -0.511, F -0.684, Y -0.909
N63: Y -0.33, R -0.238, Q -0.113, H -0.093, C -0.157, I -0.766, F -0.661, S -0.104, L -0.615, K -0.175, E 0.009, V -0.59, A -0.184, G -0.175, T -0.119
C68: Q -0.189, F -0.112, A -0.003, E -0.645, N -0.117, R -0.875, M -0.22, L 0.061, D -0.624, I -0.049, H 0.143, S 0.081, G -0.699, W -0.793, P -0.759, T 0.103
F69: E -0.108, A -0.613, H 0.001, C -0.148, N -0.361, S -0.163, Q -0.423, Y 0.061, G -0.605, W -0.191, K -0.146, R -0.272, D -0.352, V -0.078, T -0.352, L -0.214, P -0.918, M -0.201
L77: N -0.751, D -0.471, G -0.572, V -0.064, F -0.855, E -0.915, M -0.395, K -0.261, P -0.929, C -0.29, S -0.831, A -1.11, R -0.903, H -0.536, T -0.243, I -0.358, Y -0.911
V78: A -0.836
K65: F -0.284, C -0.183, H 0.091, I 0.263, D -0.914, L -0.005, S -0.195, Q 0.127, E -0.821, P -0.135, N -0.139, Y 0.093, G -0.47, R -0.032, V 0.072, M -0.264
G71: S -0.512, M -1.4, A -0.782, N -0.351, I -0.249, H -0.281, T -0.919, Y -0.64, F -0.725, D -0.482, W -0.524, Q -0.763, R -0.895, C -0.957, V -0.888, L -0.538
L66: V -0.864, C -0.923, M -0.664, I -0.461, P -0.588, K -0.644, F -0.461, G -0.789, T -0.772, E -0.493, N -0.825, S -0.747, R -0.706, Y -0.508, A -0.822, H -0.475, D -1.44
E58: P -0.95, L -0.492, K -0.652, A -0.647, R -0.676, D -0.942, M -0.476, Q -0.513, H -0.227, S -0.62, T -0.456, V -0.561, G -0.733, Y -0.801, N -0.536
V74: D -0.593, N -0.511, M -0.198, F -0.066, P -0.981, L -0.427, K -0.953, W -0.243, C -0.658, G -0.716, H -0.249, E 0.195, R -0.446, Y 0.236, A -0.585, Q -0.777
D62: L -0.563, A -0.875, W -0.929, Q -0.603, G -0.818, T -0.906, N -0.307, F -0.536, R -0.709, I -0.744, C -1.05, Y -0.604, V -0.674, P -0.575, M -0.441, S -0.748
S75: M -0.726, R -0.606, I -0.459, D -0.723, T -0.519, W -0.603, N -0.899, V -0.161, K -0.967, F -0.793, H -0.6, Y -0.669, P -0.59, G -0.221, E -0.782, C 0.099, L -0.463
W76: M -0.678, I -1.4, P -0.625, L -0.842, C -0.737, E -0.891, K -0.709, R -0.72, N -0.661, H -1.2, G -0.648, Y -0.456, T -0.579, V -0.565, F -0.482, Q -0.943
S60: R -0.273, D -0.32, N -0.111, H 0.137, F -0.189, T -0.005, L -0.502, G -0.572, C 0.1, A -0.152, P -0.922, K 0.032, I -0.325, E -0.269, W -0.115, M -0.199
N70: Y -0.915, R -0.249, P -0.628, A -0.602, W -0.634, L -0.757, E -0.001, D 0.009, H -0.165, K 0.002, F -0.449, V -0.593, S -0.568, Q -0.341, M -0.374, C -0.467, T -0.466
P67: V -0.728, H -0.874, M -0.603, I -1.04, E -0.432, K -1.02, L -0.94, R -0.544, Q -0.676, S -0.646, F -0.657, C -0.948, W -1.01, Y -0.602, D -0.623, A -0.841, G -0.659
E57: W -0.526, Y -0.222
D61: S -0.594, I -0.384, E -0.257, G -0.791, Q -0.082, N -0.33, A -0.578, V -0.695, C -0.407, L -0.763, K -0.984, Y -0.666, W -0.679, P -0.566, M -0.335, T -0.985, H -0.695, F -0.52
R72: M 0.2, Q 0.243, H 0.183, G -0.416, C 0.222, W 0.139, S 0.149, T 0.318, N 0.029, I 0.269, P -1.04, D -0.272, F 0.219, L 0.216, A 0.163, K 0.102
I59: E -0.677, Y -0.655, N -0.736, P -0.777, F -0.592, H -0.628, S -0.704, A -0.419, W -0.724, L -0.64, D -1.21, R -0.746, V -0.395, C -0.593, G -0.696, Q -1.11, K -0.675, T -0.811, M -0.474
